Test results published in the supplement of paper PMC9112550, “Optimization of the antimicrobial peptide Bac7 by deep mutational scanning” (BMC Biology, 2022).

Tested on: Escherichia coli TOP10
Assay: shrunken log2 fold change of peptide-encoding DNA abundance (4.5 h post-induction vs induction); higher = less antimicrobial activity (less host growth inhibition)
Details: time post-induction: 4.5 h; library: site-saturation at positions 5, 18, 19, 20
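Further: peptides expressed intracellularly from a pBAD plasmid library in pooled LB shake-flask culture, induced with 0.3% L-arabinose, DNA abundance read by NGS, three biological replicates, DESeq2 with apeglm shrinkage.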

Sequence | shrunken log2 fold change
RRIRCRPPRLPRPRPRPQMRPRP | 0.611
RRIRSRPPRLPRPRPRPKVHPRP | -0.231
RRIRGRPPRLPRPRPRPANEPRP | -0.0603
RRIRERPPRLPRPRPRPVIFPRP | -0.392
RRIRQRPPRLPRPRPRPVYCPRP | -0.155
RRIRSRPPRLPRPRPRPQLSPRP | -0.106
RRIRLRPPRLPRPRPRPIHAPRP | 0.111
RRIRERPPRLPRPRPRPRFRPRP | 0.0352
RRIRRRPPRLPRPRPRPDRLPRP | 0.058
RRIRFRPPRLPRPRPRPLSRPRP | -0.102
RRIRERPPRLPRPRPRPREVPRP | 0.13
RRIRERPPRLPRPRPRPYNIPRP | -0.184
RRIRFRPPRLPRPRPRPTKSPRP | 0.106
RRIRRRPPRLPRPRPRPIVDPRP | 0.841
RRIRVRPPRLPRPRPRPPLLPRP | 0.287
RRIRIRPPRLPRPRPRPQVSPRP | -0.21
RRIRNRPPRLPRPRPRPTFRPRP | -0.22
RRIRGRPPRLPRPRPRPHQYPRP | -0.226
RRIRFRPPRLPRPRPRPPGEPRP | 0.421
RRIRERPPRLPRPRPRPRAAPRP | 0.448
RRIRPRPPRLPRPRPRPDIPPRP | -0.219
RRIRERPPRLPRPRPRPAIKPRP | -0.656
RRIRIRPPRLPRPRPRPRMNPRP | -0.593
RRIRWRPPRLPRPRPRPHEQPRP | 0.718
RRIRERPPRLPRPRPRPQFLPRP | -0.571

Sequence | shrunken log2 fold change
RRIRERPPRLPRPRPRPYMRPRP | -0.188
RRIRLRPPRLPRPRPRPTDFPRP | -0.0399
RRIRDRPPRLPRPRPRPTQFPRP | 0.216
RRIRTRPPRLPRPRPRPTGDPRP | 0.475
RRIRIRPPRLPRPRPRPCENPRP | -0.00127
RRIRKRPPRLPRPRPRPQWIPRP | 0.00082
RRIRLRPPRLPRPRPRPDAPPRP | 0.313
RRIRCRPPRLPRPRPRPQTEPRP | 0.0248
RRIRPRPPRLPRPRPRPPSYPRP | -0.147
RRIRCRPPRLPRPRPRPVPPPRP | 0.474
RRIRCRPPRLPRPRPRPWEKPRP | 0.0651
RRIRGRPPRLPRPRPRPDQFPRP | 0.704
RRIRERPPRLPRPRPRPEYHPRP | -0.242
RRIRLRPPRLPRPRPRPLSHPRP | 0.2
RRIRCRPPRLPRPRPRPDGLPRP | -0.0371
RRIRERPPRLPRPRPRPAQFPRP | 0.383
RRIRWRPPRLPRPRPRPFTNPRP | 0.115
RRIRRRPPRLPRPRPRPLIEPRP | 0.35
RRIRNRPPRLPRPRPRPYPFPRP | 0.0247
RRIRKRPPRLPRPRPRPAIMPRP | 0.418
RRIRCRPPRLPRPRPRPDQPPRP | 0.171
RRIRCRPPRLPRPRPRPEALPRP | 0.0749
RRIRKRPPRLPRPRPRPCIWPRP | 0.0573
RRIRPRPPRLPRPRPRPLMMPRP | -0.204
RRIRFRPPRLPRPRPRPNTEPRP | -0.479

Sequence | shrunken log2 fold change
RRIRWRPPRLPRPRPRPCTQPRP | -0.177
RRIRWRPPRLPRPRPRPPCCPRP | 0.198
RRIRLRPPRLPRPRPRPIDFPRP | -0.384
RRIRGRPPRLPRPRPRPYPIPRP | 3.7
RRIRYRPPRLPRPRPRPPPWPRP | 0.358
RRIRGRPPRLPRPRPRPGEVPRP | 1.2
RRIRGRPPRLPRPRPRPRNGPRP | 0.343
RRIRSRPPRLPRPRPRPKVGPRP | 0.176
RRIRARPPRLPRPRPRPFRLPRP | 0.114
RRIRSRPPRLPRPRPRPVYYPRP | -0.71
RRIRWRPPRLPRPRPRPQFPPRP | 0.0157
RRIRLRPPRLPRPRPRPCGIPRP | 0.142
RRIRLRPPRLPRPRPRPNYCPRP | -0.31
RRIRLRPPRLPRPRPRPNFAPRP | 0.0393
RRIRHRPPRLPRPRPRPQSTPRP | -0.395
RRIRGRPPRLPRPRPRPGENPRP | -0.0369
RRIRIRPPRLPRPRPRPFVGPRP | -0.134
RRIRLRPPRLPRPRPRPSTRPRP | 0.174
RRIRYRPPRLPRPRPRPYTCPRP | -0.00145
RRIRNRPPRLPRPRPRPSSCPRP | -0.063
RRIRGRPPRLPRPRPRPWMEPRP | 0.563
RRIRERPPRLPRPRPRPDAKPRP | 0.0113
RRIRFRPPRLPRPRPRPNRCPRP | -0.717
RRIRSRPPRLPRPRPRPGYRPRP | -0.0248
RRIRLRPPRLPRPRPRPHITPRP | -0.824

Sequence | shrunken log2 fold change
RRIRRRPPRLPRPRPRPYMGPRP | 0.00385
RRIRQRPPRLPRPRPRPTNCPRP | -0.33
RRIRFRPPRLPRPRPRPCQFPRP | -0.227
RRIRVRPPRLPRPRPRPEHGPRP | -0.219
RRIRARPPRLPRPRPRPYYLPRP | -0.539
RRIRIRPPRLPRPRPRPTQEPRP | 0.0113
RRIRFRPPRLPRPRPRPSGKPRP | -0.0093
RRIRWRPPRLPRPRPRPWCNPRP | -0.0973
RRIRPRPPRLPRPRPRPLCSPRP | -0.431
RRIRARPPRLPRPRPRPLTKPRP | 0.339
RRIRKRPPRLPRPRPRPLIEPRP | 0.105
RRIRARPPRLPRPRPRPQPRPRP | 0.721
RRIRRRPPRLPRPRPRPRGDPRP | 0.393
RRIRPRPPRLPRPRPRPKHVPRP | -0.137
RRIRERPPRLPRPRPRPAADPRP | 0.127
RRIRRRPPRLPRPRPRPVHPPRP | 0.348
RRIRFRPPRLPRPRPRPEPPPRP | 0.702
RRIRDRPPRLPRPRPRPQINPRP | -0.0439
RRIRNRPPRLPRPRPRPSNRPRP | -0.138
RRIRFRPPRLPRPRPRPRKSPRP | 0.123
RRIRPRPPRLPRPRPRPMPPPRP | 0.194
RRIRCRPPRLPRPRPRPVDRPRP | 0.0626
RRIRYRPPRLPRPRPRPTMIPRP | -0.455
RRIRMRPPRLPRPRPRPNAAPRP | 2.83
RRIRNRPPRLPRPRPRPVEQPRP | 0.0207

Sequence | shrunken log2 fold change
RRIRWRPPRLPRPRPRPWSWPRP | 1.16
RRIRGRPPRLPRPRPRPMYIPRP | -0.396
RRIRTRPPRLPRPRPRPYTIPRP | -1.21
RRIRSRPPRLPRPRPRPASPPRP | -0.0809
RRIRVRPPRLPRPRPRPGIGPRP | 0.344
RRIRLRPPRLPRPRPRPHFMPRP | 0.0603
RRIRCRPPRLPRPRPRPGEIPRP | 0.183
RRIRPRPPRLPRPRPRPHPDPRP | -0.0791
RRIRCRPPRLPRPRPRPTAVPRP | 0.393
RRIRFRPPRLPRPRPRPLWCPRP | -0.0894
RRIRPRPPRLPRPRPRPWQCPRP | -0.0562
RRIRHRPPRLPRPRPRPDLNPRP | 0.015
RRIRWRPPRLPRPRPRPFLMPRP | -0.115
RRIRRRPPRLPRPRPRPVQTPRP | 0.178
RRIRGRPPRLPRPRPRPYLAPRP | 0.398
RRIRNRPPRLPRPRPRPVSTPRP | -0.272
RRIRVRPPRLPRPRPRPAYMPRP | -0.271
RRIRYRPPRLPRPRPRPCNCPRP | -0.0018
RRIRIRPPRLPRPRPRPIGGPRP | -0.0686
RRIRGRPPRLPRPRPRPTWVPRP | 0.493
RRIRHRPPRLPRPRPRPPTRPRP | 0.429
RRIRDRPPRLPRPRPRPQTQPRP | 0.372
RRIRGRPPRLPRPRPRPIYKPRP | -0.071
RRIRQRPPRLPRPRPRPNESPRP | -0.0813
RRIRKRPPRLPRPRPRPEMNPRP | 2.14
